Experimental data: paper PMC11116813

Legend:
[1] = molecular target: Chp2 (Schizosaccharomyces pombe) (UniProt O42934); conditions: cited from earlier work
[2] = molecular target: full-length human HP1α WT (hHP1α), recombinant (human) (UniProt P45973); assay: ITC; iTC200, full-length HP1α dimer in the cell (60 μM for hINCENP, 80 μM for hSgo1), 600 μM hINCENP or 800 μM hSgo1 fragment in the syringe, 25°C, 20 mM NaPO4 pH 7.0, 150 mM NaCl, 1 mM DTT (Fig. 6A, Fig. S5A); one-site model
Chain of full-length human HP1α WT (hHP1α), recombinant (human) (P45973 whole entry, the tested form may be a part): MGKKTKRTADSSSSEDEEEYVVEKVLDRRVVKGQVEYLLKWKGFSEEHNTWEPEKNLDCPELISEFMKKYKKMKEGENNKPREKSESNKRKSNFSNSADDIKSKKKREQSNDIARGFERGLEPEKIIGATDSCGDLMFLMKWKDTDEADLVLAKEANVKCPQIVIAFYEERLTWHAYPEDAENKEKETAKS

Chain of Mit1 (Q9P793 whole entry): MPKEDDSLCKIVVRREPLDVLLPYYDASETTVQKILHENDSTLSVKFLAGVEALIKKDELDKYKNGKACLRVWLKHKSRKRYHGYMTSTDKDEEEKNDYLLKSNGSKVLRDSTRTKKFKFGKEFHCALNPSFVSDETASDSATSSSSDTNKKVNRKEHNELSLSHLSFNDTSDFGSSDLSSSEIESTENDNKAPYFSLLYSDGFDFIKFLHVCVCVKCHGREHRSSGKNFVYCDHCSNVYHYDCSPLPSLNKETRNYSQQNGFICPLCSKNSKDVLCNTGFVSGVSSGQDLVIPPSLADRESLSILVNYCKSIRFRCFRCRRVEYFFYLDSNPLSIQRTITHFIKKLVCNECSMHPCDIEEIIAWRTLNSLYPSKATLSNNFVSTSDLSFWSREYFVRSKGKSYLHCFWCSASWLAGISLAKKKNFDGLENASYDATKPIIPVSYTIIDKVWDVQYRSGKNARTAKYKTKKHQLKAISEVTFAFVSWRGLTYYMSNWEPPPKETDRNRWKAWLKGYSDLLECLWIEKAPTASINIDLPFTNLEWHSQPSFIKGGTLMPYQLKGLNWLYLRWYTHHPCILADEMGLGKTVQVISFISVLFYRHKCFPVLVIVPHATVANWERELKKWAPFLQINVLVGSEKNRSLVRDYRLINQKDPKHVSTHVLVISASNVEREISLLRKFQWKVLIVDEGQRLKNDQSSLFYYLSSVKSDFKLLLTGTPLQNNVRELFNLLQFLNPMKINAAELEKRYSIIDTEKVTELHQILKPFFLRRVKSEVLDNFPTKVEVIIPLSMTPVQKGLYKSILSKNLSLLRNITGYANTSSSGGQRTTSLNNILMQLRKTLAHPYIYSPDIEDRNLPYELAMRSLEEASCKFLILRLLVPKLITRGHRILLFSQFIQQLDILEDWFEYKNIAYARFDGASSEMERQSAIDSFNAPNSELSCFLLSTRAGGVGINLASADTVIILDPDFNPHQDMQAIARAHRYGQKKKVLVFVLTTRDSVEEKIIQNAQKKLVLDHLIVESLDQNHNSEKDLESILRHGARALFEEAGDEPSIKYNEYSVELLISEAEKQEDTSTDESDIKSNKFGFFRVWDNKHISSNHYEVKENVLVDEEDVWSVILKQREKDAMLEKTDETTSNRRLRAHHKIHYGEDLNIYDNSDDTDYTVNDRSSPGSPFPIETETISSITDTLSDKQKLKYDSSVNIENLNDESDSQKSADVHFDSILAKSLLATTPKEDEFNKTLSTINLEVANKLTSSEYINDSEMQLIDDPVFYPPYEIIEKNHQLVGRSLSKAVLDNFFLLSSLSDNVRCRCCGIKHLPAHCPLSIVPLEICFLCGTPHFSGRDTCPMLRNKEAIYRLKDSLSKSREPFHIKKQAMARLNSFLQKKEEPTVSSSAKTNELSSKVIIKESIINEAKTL
Chain of Chp2 (Schizosaccharomyces pombe) (O42934 whole entry, the tested form may be a part): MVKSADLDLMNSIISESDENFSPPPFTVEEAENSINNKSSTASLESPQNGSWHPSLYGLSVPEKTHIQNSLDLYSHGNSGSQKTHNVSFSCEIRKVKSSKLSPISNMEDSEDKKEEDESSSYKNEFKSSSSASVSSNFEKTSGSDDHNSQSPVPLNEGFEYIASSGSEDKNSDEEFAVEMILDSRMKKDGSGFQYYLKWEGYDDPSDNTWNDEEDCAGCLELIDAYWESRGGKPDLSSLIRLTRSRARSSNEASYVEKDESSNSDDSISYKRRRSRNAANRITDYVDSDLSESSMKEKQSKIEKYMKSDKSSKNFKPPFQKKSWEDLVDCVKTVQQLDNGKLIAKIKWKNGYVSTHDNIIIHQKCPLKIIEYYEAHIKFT

In the case of Mit1 (from UniProt Q9P793), the Kd [1] is given as 2.6 nM.

With “human INCENP fragment (121-210) E180A (from UniProt Q9NQS7 121-210) (domain or fragment)” the Kd [2] was 810 nM.

For “human INCENP fragment (121-210) WT used in Fig. 6A (from UniProt Q9NQS7 121-210) (domain or fragment)”, the Kd [2] was 60 nM.
